From the supplement of paper PMC9170038

Tested on: MS2 coat protein
Experiment: apparent KD of MS2 coat protein; designed switch direction (-1 OFF switch, 1 ON switch): -1; higher = weaker reporter binding
Method in brief: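 The reported apparent KD is a per-design median over clusters, from curve fits of normalised cluster fluorescence. Protein titrations used SNAP-549-labelled MS2 coat protein, doubled from 0.7 or 1.5 nM to 3 µM, in Tris-HCl pH 7.5 buffer with KCl, MgCl2, BSA, DTT, tRNA and Tween-20, with no input, 200 uM small-molecule ligand, or an oligonucleotide input. The RNA switches were transcribed on Illumina chips by stalled E. coli RNA polymerase.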

[1] = Eterna round: R95, input ligand: microRNA oligo, concentration not stated
[2] = input ligand: microRNA oligo, concentration not stated

Q: Which “apparent KD of MS2 coat protein” value [1] does the source give for “UCGGCGCGAGGAUAUACGGUUGCUUUUUAGGGUCGUGGCGUACAUGAGGAUCACCCAUGUAGAAGGCGCGCCGC [Apr-15 SS2-30] (puzzle: Exclusion 2)” here?
A: Its value is 0.0138 µM.

Q: With “UCGGCGCGAGGAUAUACGUUUGCGCGUUUUCGUUUGCGCGUACAUGAGGAUCACCCAUGUAGAAGGCGCGCCGC [Apr-15 SS2-14] (puzzle: Exclusion 2)” as the sequence, how does the “apparent KD of MS2 coat protein” value [1] read?
A: The value was 0.0132 µM.

Q: With “UCGGCGCGAGGAUAUGCGGUUCCUGCUUCGGGCCGGAGCGUACAUGAGGAUCACCCAUGUAGAAGGCGCGCCGC [Apr-15 SS2-38] (puzzle: Exclusion 2)” as the sequence, how does the “apparent KD of MS2 coat protein” value [1] read?
A: Its value is 0.0121 µM.

Q: What does the source list for “UCUAUUUUGCGAGGAUAUCGACCAUUCCUCUUUACAUGAGGAUCACCCAUGUUCUUUUUCUACAACGAGAAGGCGCUCUAAGUU [JR_ExcNG2_Sub061] (Eterna round: R96, puzzle: Exclusion NG 2)”?
A: apparent KD of MS2 coat protein (input ligand: FMN 200 uM): 0.0719 µM; apparent KD of MS2 coat protein [2]: 0.065 µM; apparent KD of MS2 coat protein (input ligand: none): 0.0591 µM

Q: How did the “apparent KD of MS2 coat protein” value (input ligand: FMN 200 uM) turn out when “UCUCCCUGGCAAGGAUAUCCUGUGCGGUUCCGGCUCGUGUCUGUUACAUGAGGAUCACCCAUGUGGGAGAAGGUGCCUGUGGCU [Design 92] (Eterna round: R96, puzzle: Exclusion NG 2)” was run?
A: Its value is 0.346 µM.

Q: And the “apparent KD of MS2 coat protein” value [2]?
A: The value was 0.0937 µM.

Q: And the “apparent KD of MS2 coat protein” value (input ligand: none)?
A: Its value is 0.143 µM.

Q: Which results are given for “UCUCGCGGGCAAGGAUAUCCCACGCUGUUCUGGCCCGUGUCUGUUACAUGAGGAUCACCCAUGUGGGAGAAGGUGCACCAGGGC [Design 43] (Eterna round: R96, puzzle: Exclusion NG 2)”?
A: apparent KD of MS2 coat protein (input ligand: FMN 200 uM): 0.0309 µM; apparent KD of MS2 coat protein [2]: 0.0168 µM; apparent KD of MS2 coat protein (input ligand: none): 0.0294 µM

Q: “UCUCGGUAAGGAUAUGCGCCGGGAUGAAGAUCCCGAAGCAUGCAGAAGGUACAUGAGGAUCACCCAUGUCUGUU [Eternabot (L1) Solution 76] (Eterna round: R97, puzzle: Exclusion 4)” was tested. Which “apparent KD of MS2 coat protein” value (input ligand: FMN 200 uM) did it give?
A: Its value is 0.0472 µM.

Q: And the “apparent KD of MS2 coat protein” value (input ligand: none)?
A: Its value is 0.0205 µM.

Q: For “UCUCUUGGGCAAGGAUAUCCUGCGCGGUUCCGGUUCGUGUCUGUCACAUGAGGAUCACCCAUGUGGGAGAAGGUGCCUGCGGUG [Design 75] (Eterna round: R96, puzzle: Exclusion NG 2)”, which “apparent KD of MS2 coat protein” value (input ligand: FMN 200 uM) is on record?
A: Its value is 0.0325 µM.

Q: And the “apparent KD of MS2 coat protein” value [2]?
A: Its value is 0.0158 µM.

Q: And the “apparent KD of MS2 coat protein” value (input ligand: none)?
A: The value was 0.0173 µM.

Q: What does the source list for “UCUGGAGCAGGAUAUAUAUGACGUGCUUCGGCACGAAGGUCACAUGAGGAUCACCCAUGUAGAAGGGCUCCAGA [E2/9-D2] (Eterna round: R97, puzzle: Exclusion 2)”?
A: apparent KD of MS2 coat protein (input ligand: FMN 200 uM): 0.344 µM; apparent KD of MS2 coat protein (input ligand: none): 0.0436 µM

Q: With “UCUUAUCUAUAGGAUAUAGGAGCAGAAUUGCGAUUAGAAGGAUGGACAUGAGGAUCACCCAUGUGCAUGGGCUU [EX6 B.6] (Eterna round: R97, puzzle: Exclusion 6)” as the sequence, how does the “apparent KD of MS2 coat protein” value (input ligand: FMN 200 uM) read?
A: The value was 0.0179 µM.

Q: What about the “apparent KD of MS2 coat protein” value (input ligand: none) of the same sequence?
A: Its value is 0.0306 µM.

Q: How did the “apparent KD of MS2 coat protein” value (input ligand: FMN 200 uM) turn out when “UCUUUGUUUGUGAGGAUAUCGGUGGAAUGGAUUGUCGAGAAGGCACAUGAGGAUCACCCAUGUGUGGGACAGCA [JR_BMEx4_Sub026] (Eterna round: R97, puzzle: Brourd's mod of Exclusion 4)” was run?
A: The value was 0.0243 µM.

Q: What about the “apparent KD of MS2 coat protein” value (input ligand: none) of the same sequence?
A: The value was 0.0223 µM.

Q: For “UGAAGUAGAGGAUAUACGUGGAAAUAGAUUCAUGUAAAACUACAUGAGGAUCACCCAUGUAGAAGGCUAUAGAU [JR_Ex2_Sub072] (Eterna round: R97, puzzle: Exclusion 2)”, which “apparent KD of MS2 coat protein” value (input ligand: FMN 200 uM) is on record?
A: Its value is 0.0284 µM.

Q: And the “apparent KD of MS2 coat protein” value (input ligand: none)?
A: Its value is 0.049 µM.

Q: With “UGAGCUUACGCAGGAUAUGAGGAUCACCCAUAGAAGGAUAUCGAAAGAGAAGGUCUGAGGAUUACCCAGAAGGGCGUGGGCUCU [pwkr exNG2 2xF5 2xFMN.11] (Eterna round: R96, puzzle: Exclusion NG 2)” as the sequence, how does the “apparent KD of MS2 coat protein” value (input ligand: FMN 200 uM) read?
A: Its value is 1.29 µM.

Q: And the “apparent KD of MS2 coat protein” value [2]?
A: The value was 0.125 µM.

Q: And the “apparent KD of MS2 coat protein” value (input ligand: none)?
A: Its value is 0.131 µM.

Q: Which “apparent KD of MS2 coat protein” value (input ligand: FMN 200 uM) does the source give for “UGAGCUUCAGGAUAUAUGUGGCGACCGUGAGGUCGAAGGUUACAUGAGGAUCACCCAUGUAGAAGGGAAGUUCU [Mat - Exclusion 2 - JL Mod - D19] (Eterna round: R97, puzzle: Exclusion 2)” here?
A: Its value is 0.181 µM.

Q: And the “apparent KD of MS2 coat protein” value (input ligand: none)?
A: Its value is 0.0622 µM.

Q: How did the “apparent KD of MS2 coat protein” value (input ligand: FMN 200 uM) turn out when “UGAGCUUGUGUGAGGAUAUUUCGAGUGAAAGCUUGAGAGAAGGCACAUGAGGAUCACCCAUGUAAGCGAGUUCG [-26.1, -24 kcal, A 28%, 1bis-1] (Eterna round: R97, puzzle: Brourd's mod of Exclusion 4)” was run?
A: Its value is 0.0842 µM.

Q: What about the “apparent KD of MS2 coat protein” value (input ligand: none) of the same sequence?
A: Its value is 0.0868 µM.

Q: With “UGAGUGCUGCGAGGAUAUACAUGAGGAUCACCCAUGUGGAUGUCUGAGGCAAAGCCUCAGACAAUGUAGAAGGCGCAGUACUCU [Mat - Exclusion NG 2 - Mod of JL - D55] (Eterna round: R96, puzzle: Exclusion NG 2)” as the sequence, how does the “apparent KD of MS2 coat protein” value (input ligand: FMN 200 uM) read?
A: Its value is 0.0961 µM.

Q: And the “apparent KD of MS2 coat protein” value [2]?
A: Its value is 0.0166 µM.

Q: And the “apparent KD of MS2 coat protein” value (input ligand: none)?
A: Its value is 0.0252 µM.

Q: Which results are given for “UGAGUGCUGCGAGGAUAUACAUGAGGAUCACCCAUGUGGUCCUGUGAGGCAAAGCCUCACAGGAUGUAGAAGGCGCAGUACUCU [Mat - Exclusion NG 2 - Mod of JL - D45] (Eterna round: R96, puzzle: Exclusion NG 2)”?
A: apparent KD of MS2 coat protein (input ligand: FMN 200 uM): 0.0952 µM; apparent KD of MS2 coat protein [2]: 0.0137 µM; apparent KD of MS2 coat protein (input ligand: none): 0.0225 µM

Q: With “UGAGUGCUGCGAGGAUAUACAUGAGGAUCACCCAUGUUUACCUGUGAGGCUUUGCCUCACAGGUUGUAGAAGGCGCAGUACUCU [JL ENG2 1.15] (Eterna round: R96, puzzle: Exclusion NG 2)” as the sequence, how does the “apparent KD of MS2 coat protein” value (input ligand: FMN 200 uM) read?
A: The value was 0.0102 µM.

Q: And the “apparent KD of MS2 coat protein” value [2]?
A: The value was 0.00911 µM.

Q: And the “apparent KD of MS2 coat protein” value (input ligand: none)?
A: The value was 0.0124 µM.

Q: What does the source list for “UGAUCACAUGAGGAUCACCCAUGUCAGGAUAUCGUCACUGGAGCUGCGGCUCCAGUGACGAGAAGGGACAUAAU [E1/3-A3] (Eterna round: R97, puzzle: Exclusion 1)”?
A: apparent KD of MS2 coat protein (input ligand: FMN 200 uM): 0.0508 µM; apparent KD of MS2 coat protein (input ligand: none): 0.242 µM

Q: Which “apparent KD of MS2 coat protein” value (input ligand: FMN 200 uM) does the source give for “UGAUCAGACCGAGGAUAUACAUGUAGGACGCACGUGAGUGCGUCCAGUACAUGAGGAUCACCCAUGUAGAAGGCGGUCUGAUCU [JL ENG2 1.95] (Eterna round: R96, puzzle: Exclusion NG 2)” here?
A: The value was 0.309 µM.

Q: And the “apparent KD of MS2 coat protein” value [2]?
A: Its value is 0.0782 µM.

Q: What about the “apparent KD of MS2 coat protein” value (input ligand: none) of the same sequence?
A: Its value is 0.0761 µM.

Q: How did the “apparent KD of MS2 coat protein” value [2] turn out when “UGAUCUAGGCGAGGAUAUACAUGAGGAUCACCCAUGUAAGCGUGACAUGGAAACAUGUCACGUAUGUAGAAGGCGCCUAGAUCU [MOD ENG2 3.54 by JL] (Eterna round: R96, puzzle: Exclusion NG 2)” was run?
A: Its value is 0.0086 µM.

Q: What about the “apparent KD of MS2 coat protein” value (input ligand: none) of the same sequence?
A: Its value is 0.0133 µM.

Q: What does the source list for “UGAUUGUUUAACAGAUUAUACAUGAGGAUCACCCAUGUAGGUCCUACGUGCACAUUAUGCAGCUCGUCUUAUUCCCA [Sensor-V1 #72] (Eterna round: R97, puzzle: Sensor, turn-off variant 1)”?
A: apparent KD of MS2 coat protein (input ligand: FMN 200 uM): 0.0355 µM; apparent KD of MS2 coat protein (input ligand: none): 0.0373 µM

Q: For “UGCAGACGAGGAUAUAAAUUUGAUAACAUGAGGAUCACCCAUGUGAUCGAUAGAUCAAAUUUAGAAGGCGUCUGCU [E5/7-A3] (Eterna round: R97, puzzle: Exclusion 5)”, which “apparent KD of MS2 coat protein” value (input ligand: FMN 200 uM) is on record?
A: Its value is 0.541 µM.

Q: And the “apparent KD of MS2 coat protein” value (input ligand: none)?
A: The value was 0.519 µM.

Q: What does the source list for “UGCCCAGCAGGAUAUACAUGAGGAUCACCCAUGUCGAUUCAGUACGACUUAGUGCAACGUAGAAGGGCUGGGCC [Eternabot (L1) Solution 84] (Eterna round: R97, puzzle: Exclusion 3)”?
A: apparent KD of MS2 coat protein (input ligand: FMN 200 uM): 0.405 µM; apparent KD of MS2 coat protein (input ligand: none): 0.0395 µM

Q: For “UGCCUAGCAGGAUAUGCCCGGGAUAACAUGAGGAUCACCCAUGUGACCGAUUGAUAUCCUGCAGAAGGGCUAGGGA [JL-EX5-4.10 ViennaUCT mod] (Eterna round: R97, puzzle: Exclusion 5)”, which “apparent KD of MS2 coat protein” value (input ligand: FMN 200 uM) is on record?
A: The value was 0.0621 µM.

Q: And the “apparent KD of MS2 coat protein” value (input ligand: none)?
A: Its value is 0.0167 µM.
